For twelve sequences, protein production results are on record in a protein production outcome set (Wang et al. 2014).

The nature of this data set: label from the status in PepcDB records.

For “MTSSPTSTQESSTSWYLLLQQLIDGESLSRSQAAELMQGWLSEAVPPELSGAILTALNFKGVSADELTGMAEVLQSQSKMGTGENYSQLPITNSPFSIIDTCGTGGDGSSTFNISTAVAFVAAAYGVPVAKHGNRSASSLTGSADVLEALGVNLGASPEKVQAALQEVGITFLFAPGWHPALKAVATLRRTLRIRTVFNLLGPLVNPLRPTGQVVGLFTPKLLTTVAQALDNLGKQKAIVLHGRERLDEAGLGDLTDLAVLSDGELQLTTINPQEVGVTPAPIGALRGGDVQENAEILKAVLQGKGTQAQQDAVALNAALALQVAGAVPLLDHAQGVSVAKEILQTGTAWAKLAQLVYFLGN”, the protein production result was “not failed”. As for “MTSSRVNSLIVGGFVLILLGGIIAAATILAGKTGSTDTYFTSYDNVTGIKYGTQVLYEGYRIGQVDEIIPEQRAEGTSFRLRLAVQKGWRIPEGSQTTIATSGLLSAVAINIRGGTAEASLTPGSEIPGGASGGMFAAINDLASEVGTLSRDGLEPLVAKLNAYVDTLGGSLADNLPAILGNARITSEAIARDLPPIIARVDRFTARLDAEVLSQKNIDGLGASIGNISAFSAELNGLGRELRQTGQTLDGMVAGSAPLVDSSLRDLRYTLRALASSIDAITFNMEGASRDMKEFSRSLRQNPGVLLRGSAPAEDGR”, the protein production entry was “failed”. On to “MTSTCTICERIKLIQAHQNPYFVYELTTGYVVLADSQYFEGYTLFLAKHHVTELHHLPAHEKLRYLEEMSIVQEACAQAFHADKMNIELLGNGDAHVHWHLFPRHNGDTPNPGPVWWTPLETIYGDDVSLDIPRLSRLKRTLSVAIEATLNAREAELQALEALTRPASHRIDSN”, for which the protein production result was “failed”. Take “MTSTETPLNSPAAAADRRRWFALAIVMTAAFMDLVDVTIVNIAIPSIQRDAGASWGQIQWITAGYALAFAAGLITGGRLGDIHGRKRLFLIGIGGFTLASALCGFAANPEMLVASRILQGGMAAMMVPQVLSIVHATFPAHERGKVFGLFGAIVGLGAVSGPLLGALLTEWNLFGLEWRPIFLINLPVGVAGLILGRRFITESKAPRALKLDLVGVALVTLGLLMLLYPLTRGRELGWPLWGHVSMAGALVVFAALVAYERRKTARDGSPLVELSLFKVKSFAAGIAVQTVFGIALGIFFLVWTLYMQMGLGWSALRAGLTGVPFSIAVSAAAGMSVQLLVPRFGRKVLQAGALLMALGVLLYIWESDRYGMAIASWQMALPLVVMGAGMGFIVAPLTDAVLSEVPREHSGSASGLINTVQQMGNALGLGLVSVVFFGEIGDRLTRAQVGPAFAHAFQHALGWVAVVLAVIFLLMFALPKRPAQHVEGAGAADTLGEKEPVLVP”: the protein production result is on record as “failed”.

On to “MTSTPGISDSLLSSMNGSGANNNTSAISETQDRFMKLLIAQMKNQDPLNPMDNAEVTSQMAQLSTVTGIEKMNASLSTFISSMQATQALQASSLIGNTVLVEGNSTYLAPAETEGESAAYLGVELPIGADKLTVNIKNGAGNVVKTITVTNQPAGISSLGWNGYGDDGTKLPDGRYTIEATATTGNSSVASTPLSYEQVMSVSTGSDGVKLNLSNLAAITTDQIKQIF”, for which the protein production entry was “not failed”.

Turning to “MTSVMPFAHLLLALLVVFVWGINFIFVKLSLEEFSPLLLCAVRFLLASVPAVFFIKPPAVPFKIIASYGLIMFALQFALLFIGLRVGMTPGVASLLMQVQVFFSMFFAIIFLGEQPQVGQIIGALIAFIGIGVVALHFDHNVSLMGFLCILAAAASWGIGNLITKKIHSVNLIAVIVWSSFVACLPMFILSLVFEGPESFVTAYEHMTWKGILSVLYIVYISTWVGYGVWNWLISRYPVGMVVPFTLLVPVVGILSSVLILGEPFYLWKLVAGLLVISGLCINLLTTRLFVAKTQQPETA”, the protein production result is “failed”.

As to “MTSVTDRSAHSAERSTEHTIDIHTTAGKLAELHKRREESLHPVGEDAVEKVHAKGKLTARERIYALLDEDSFVELDALAKHRSTNFNLGEKRPLGDGVVTGYGTIDGRDVCIFSQDATVFGGSLGEVYGEKIVKVQELAIKTGRPLIGINDGAGARIQEGVVSLGLYSRIFRNNILASGVIPQISLIMGAAAGGHVYSPALTDFVIMVDQTSQMFITGPDVIKTVTGEEVTMEELGGAHTHMAKSGTAHYAASGEQDAFDYVRELLSYLPPNNSTDAPRYQAAAPTGPIEENLTDEDLELDTLIPDSPNQPYDMHEVITRLLDDEFLEIQAGYAQNIVVGFGRIDGRPVGIVANQPTHFAGCLDINASEKAARFVRTCDCFNIPIVMLVDVPGFLPGTDQEYNGIIRRGAKLLYAYGEATVPKITVITRKAYGGAYCVMGSKDMGCDVNLAWPTAQIAVMGASGAVGFVYRQQLAEAAANGEDIDKLRLRLQQEYEDTLVNPYVAAERGYVDAVIPPSHTRGYIGTALRLLERKIAQLPPKKHGNVPL”, the protein production entry is on record as “not failed”. Next, “MTTANTPVRPKSAIDAVADAYTEKLIELNPSFATTLGLPGHETEYQDYSPAGAAAHAEATRLALEALAGLEPSDDVDAVTLDAMRERLGLELEIHQSGWDAADLNNIASPAQDIRAIFDLMPTDTVEHWEHIAGRAANVPGAIEGYIASLRAAKDDRKVAAARQIRIVIEQTGRYAAEDGFFAKMAADASLGDAPLPAEVQDKLDAGTSAARSAYSALGAFLRDELLPVAPEKDAVGRERYSLASRSFIGAEVDLEETYAWGVQELERLISEQEKVAGQIKPGASIEEAKSILNNDPARQIKGTDALKAWMQELSDRAVSELADVHFDIPDVMKTLECMIAPTDEGGIYYTGPSDDFSRPGRMWWSVPAGEDTFTTWSETTTVFHEGVPGHHLQVATATYRRELLNNWRRNVCWVSGHGEGWALYAEQLMLELGYLKDPGDHMGMLDGQRMRAARVVFDIGVHLELPVPERWGTGTWTPEKGFDFLKANLDISEGQLQFEFTRYLGWPGQAPSYKVGQRLWEQIRAELESREGFDLKSFHSKALNIGSVGLDVLRRALL”: “not failed”. Next, “MTTCAPAVPAQLDVAGDLLALLRDTTTEPRPDIQLEALTLAVAADLPVLLWGEPGIGKTAALTQLATALDLPLTTVIASVHEPSDFSGLPVVGDDPAEQGVPMAPPDWAVRLVRAGRGLLFLDELSTAPPAVQAALLRLVLERRIGALRLPPGVRIVAAANPRSSAADGWELSPPLANRFVHLQWTHDQDVVVRGLGGTWPRAALPSLDPGGLDGAVRYARRAVCAFLTARPGLVHRLPSGETRRGGAWPSPRSWEMTLCLIAFATAAGSSREVLSLLVRGTVGDGPGLELMASLDRMDLPDPETLLADPAGAVLPERGDLRQAVLDGVVAAVRKRPEKSRWDSAWALLARAMETGAPDVVVVPATTLATLRQQDWDIPASIERLAGAMSLSRRADRAADRAAARLAGTARTSGLEHHHHHH”: “failed”; “MTTDNPLISIYMPTWNRQQLAIRAIKSVLRQDYRHWEMIIVDDCSSSYQQLQQFVEELNDPRVRYTHNARNTGACAVRNQAIMQAQGHYITGIDDDDEWTPNRLSVFLAHKHQLTTHAFLYANDYVCEGEVYSQPASLPLYPKSPYSRRLFYKRNIIGNQVFTWAWRFKASLFDTELKAAQDYDIFLRMVVEYGEPWKVEEATQILHINHGEMQITSSPKKFSGYFHFYRKHKDKFDRASKKYQLFTLYQIRNKRMTWRTLLTLLSVRNSKRLAAGLRGR”: “failed”. Regarding “MTTEIKKLDPDTAIDIAYDIFLEMAGENLDPADILLFNLQFEERGGVEFVETADDWEEEIGVLIDPEEYAEVWVGLVNEQDEMDDVFAKFLISHREEDREFHVIWKK”, the protein production entry is reported as “not failed”.

Consider “MTTFDAKKLKKEYLDWYNQILEFSNLSNNSVKIDTPFKDNSLDNLKIYALYDQSRDMITLTDDGYTIFGLENNGVSINKFKKRKKIFEEHLSAYGIKYNDKTHEIFVQTNFKNFNKSKHNLLQCLIFVNDMYLLSNPKSQNIFTEDVANKLDEHNIYYGRDIPIIGSSGVVHNFDFFISAKKNQKEKFINVFSNPNNSMIIKSKITDAMQAKKIKRHRQNEFIFILNDSKKEINEHNKNLLHENYISTIDYSELDEKIGLLI”, for which the protein production result is on record as “failed”.
